For orientation: EC50 means the midpoint of the concentration-response curve. In general, koff refers to the first-order rate constant of dissociation. As a reminder, the kon is a measure of how fast the partners come together. What is called IC50 is the concentration that inhibits the measured activity by half. Usually EC50 (read off the curve) stands for the concentration needed to bring the measured effect to its halfway point.

For experiment [1], the target named is T1, mature myostatin (recombinant, dimeric) (mouse polyprotein used for in-house …, UniProt O08689 268-376).
T1 sequence: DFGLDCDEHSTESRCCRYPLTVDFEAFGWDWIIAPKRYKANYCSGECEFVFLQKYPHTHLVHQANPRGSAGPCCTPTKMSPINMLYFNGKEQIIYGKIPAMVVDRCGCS
The experiment can be described thus: cell-based or functional assay.

Experiment [2] addresses T1, mature myostatin (recombinant, dimeric). The experiment can be described thus: cell-based or functional assay. The source holds these as a separate data set.
Experiment [3] has the same target. The experiment can be described thus: cell-based or functional assay. The source holds these as a separate data set.
Experiment [4] has the same target. The experiment can be described thus: cell-based or functional assay. The source holds these as a separate data set.
Experiment [5] has the same target. The experiment can be described thus: cell-based or functional assay. The source holds these as a separate data set.
The target is the same in experiment [6]. The experiment can be described thus: ELISA, plate-coated myostatin (R&D Systems), mean EC50. The protocol: 10B3 and 10B3 chimera (10B3C) bound myostatin (R&D Systems, 788-G8-010/CF) in a sandwich ELISA. Plates were coated with myostatin at 10 ng/well and blocked with Block solution (PBS, 0.1% TWEEN and 1% BSA). Following washing (PBS, 0.1% TWEEN), antibody was incubated at 37° C. for 2 hours over a dilution series and plates washed again prior to incubation at 37° C. for 1 hour with anti-mouse HRP or anti-human HRP (Dako, P0161 & Sigma, A-8400, respectively). Plates were again washed and OPD substrate (Sigma, P9187) added until colourometric reaction occurred and the reaction stopped by the addition of H₂SO₄.
(In an ELISA, binding on a coated surface is turned into a signal by an enzyme label.)

Experiment [7] shares this target. The experiment can be described thus: BIAcore, low density myostatin surface, methods as in 4.3. (In general: SPR reads the build-up and loss of mass on a sensor chip optically.)
For experiment [8] the target is unchanged. The experiment can be described thus: BIAcore, low density myostatin surface, antibody analyte, 1:1 model. How it is done:
(§1) Purified H0L0, H1L2 and H2L2 bound recombinant myostatin by BIAcore™ Recombinant myostatin was immobilised at three different densities (low, medium and high, to give R-max values of approximately 35, 120 and 350 RU's respectively) onto a BIAcore™ chip. Antibodies were passed over at 256, 64, 16, 4 and 1 nM. 0 nM antibody was used for double referencing and data was fitted to the 1:1 model.

Experiment [9] has the same target. The experiment can be described thus: BIAcore, high density myostatin surface, antibody analyte, 1:1 model (poor fits). The protocol: as §1
Experiment [10] has the same target. The experiment can be described thus: BIAcore, medium density myostatin surface, antibody analyte, 1:1 model (poor fits). How it is done:
as §1

For experiment [11] the target is unchanged. The experiment can be described thus: ELISA: inhibition of 2 nM biotinylated myostatin binding to plate-coated ActRIIb, mean IC50. How it is done:
Recombinant soluble ActRIIb (R&D Systems 339-RBB) was coated in wells of an ELISA plate at 1 μg/ml in carbonate buffer overnight at 4° C. Plates were blocked (see Block solution above at 2.3) and washed following standard ELISA protocols. In parallel, 2 nM biotinylated myostatin (in-house, as described in 1.1, biotinylated material) was pre-incubated with an antibody dilution series consisting of 10B3, 10B3C, and a negative control (IgG1 isotype control) for 2 hours at 37° C. The biotinylated myostatin:antibody reactions were then added to the ActRIIb coated plate for 1 hour at 37° C. Standard wash procedures were followed prior to addition of 1:1000 diluted streptavidin-HRP conjugate (Dako P0397) and a further 37° C. incubation for 1 hour. Plates were again washed and assayed at absorbance 490 nm following OPD substrate (Sigma) and acid stop solution treatment Inhibition curves and IC50 values for the inhibition of myostatin activity are shown in FIG. 5 and Table 8 respectively.

For experiment [12] the target is unchanged. The experiment can be described thus: BIAcore T100, antibody captured on protein A (C1 chip), myostatin analyte, all curves 1:1 model. How it is done:
(§2) The affinity of 10B3 mouse parental and 10B3C for recombinant myostatin was assessed by BIAcore™ (surface plasmon resonance) analysis. Analysis was carried out by the use of a capture surface: anti-mouse IgG was coupled to a C1 chip by primary amine coupling for 10B3 mouse parental; and a protein A surface was created on a C1 chip by primary amine coupling for 10B3 chimera.
(§3) After capture, recombinant myostatin was passed over the surface at 64 nM, 16 nM, 4 nM, 1 nM, 0.25 nM and 0.0625 nM, with a buffer injection (i.e. 0 nM) used for double referencing. There was a regeneration step between each analyte injection, after which the new antibody capture event occurred before the next injection of myostatin. The data was analysed using both the 1:1 model and the Bivalent model inherent to the T100 machines analysis software (see Table 6). Both capture surfaces could be regenerated using 100 mM phosphoric acid, the work was carried out using HBS-EP as the running buffer and using 25° C. as the analysis temperature.

The target is the same in experiment [13]. The experiment can be described thus: BIAcore T100, antibody captured on protein A (C1 chip), myostatin analyte, all curves Bivalent model. The protocol:
as §2, §3

The target is the same in experiment [14]. The experiment can be described thus: myostatin binding ELISA with purified antibody (made in CHOE1a), 10 ng/well recombinant myostatin coated, anti-human kappa HRP, A490 (Examples 4.1, 4.2). How it is done: The myostatin binding ELISA was carried out approximately according to this protocol. A 96-well ELISA plate was coated at 4° C. overnight with 10 ng/well recombinant myostatin. This plate was then washed 3-times in wash buffer (PBS, 0.1% Tween-20). The wells were blocked for 1 hour at room temperature with block solution (PBS, 0.1% Tween-20+1% bovine serum albumin [BSA]), before washing 3-times in wash buffer. Antibodies were then titrated out to a suitable concentration range (approximately 100 to 0.001 μg/ml), added to the plate and incubated for 1 hour at room temperature. The plate was then washed 3-times in wash buffer. An anti-mouse IgG HRP-conjugated antibody (P0260 by Dako, this reagent was used according to the manufacturer's instructions) was used to detect binding of mouse antibodies, such as 10B3. An anti-human kappa light chain HRP-conjugated antibody (A7164 by Sigma Aldridge, this reagent was used according to the manufacturer's instructions) was used to detect binding of humanized or chimeric antibodies, such as 10B3 chimera or H0L0. The plate was then washed 3-times in wash buffer and developed with an OPD substrate (from Sigma, used according to the manufacturer's instructions) and read at 490 nm on a plate reader.

Experiment [15] has the same target. The experiment can be described thus: BIAcore, low density myostatin surface.
For experiment [16] the target is unchanged. The experiment can be described thus: myostatin binding ELISA after 48 h at 37 C in PBS (Examples 5.2, 4.2), A490.

Like-named read-outs stand apart in the source and are kept apart here. A value given as a limit tells only on which side of the number the result lay.

B1: 10B3 chimera (antibody, human IgG1, kappa, V domains shown)
VH: EVQLQQSGPELVKPGASVKISCKASGYSFTGYFMHWVKQSHGNILDWIGNIYPYNGVSNYNQRFKAKATLTVDKSSSTAYMELRSLTSEDSAVYYCARRYYYGTGPADWYFDVWGTGTLVTVSS
VL: DIKMTQSPSSMYASLRERVTITCKASQDINSYLSWFQQKPGKSPKTLIYRANRLVDGVPSRFSGSGSGQDYSLTISSLEYEDMGIYYCLQCDEFPLTFGAGTKLELKR
notes: Mouse variable regions on human IgG1/kappa wild type constant regions; also called HCLC; HcLc
On to B1, for which the “Mean IC50, myostatin responsive reporter gene assay (A204 cells, luciferase)” value in experiment [1] is 6.2 nM. The “Mean IC50, A204 in vitro activity assay” value in experiment [2] was found to be 5.1 nM; in [3], 8.45 nM; in [5] it was 3.57 nM. For the same molecule, in [4], the “Mean IC50, A204 in vitro activity assay (5 nM myostatin)” value was 3.53 nM. Besides, in [6], the EC50 came out at 0.049 µg/mL. Moreover, the Kd amounted to 4.44 nM in [7]; 1.61 nM in [8]; 0.882 nM in experiment [9]; 1.35 nM in [10]; 0.088 nM in [12]; 3.6 nM in experiment [13]. Moreover, the koff is 0.000967 s⁻¹ in experiment [8], 0.000218 s⁻¹ in [9] and 0.000559 s⁻¹ in experiment [10]. In addition, the kon in experiment [8] was 599000 M⁻¹ s⁻¹; in [9] it was 248000 M⁻¹ s⁻¹; in experiment [10], 413000 M⁻¹ s⁻¹. Besides, the IC50 in experiment [11] was 0.138 µg/mL. The concentration giving a half-maximal response (EC50 (read off the curve)) in experiment [14] was approximately 0.1 µg/mL.

B2: H2L2 N54Q (H2L2-N54Q) (antibody, human IgG1, kappa, V domains shown)
VH: QVQLVQSGAEVKKPGASVKVSCKASGYSFTGYFMHWVRQAPGQGLEWMGNIYPYQGVSNYNQRFKARVTMTTDTSTSTAYMELRSLRSDDTAVYYCARRYYYGTGPADWYFDVWGQGTLVTVSS
VL: DIQMTQSPSSLSASVGDRVTITCKASQDINSYLSWFQQKPGKAPKSLIYRANRLVDGVPSKFSGSGSGTDYTLTISSLQPEDFATYYCLQCDEFPLTFGQGTKLEIKR
Regarding B2, in [3], the “Mean IC50, A204 in vitro activity assay” value was found to be 12 nM. In addition, the “fold loss in affinity against H2L2” value in experiment [15] is not below 2 fold. For the same molecule, the Kd in experiment [7] worked out at 28 nM. Moreover, in [16], the concentration giving a half-maximal response (EC50 (read off the curve)) was approximately 1 nM.

(Values after US20110256132A1 (published 2011).)
